The labels stand for the following.
T1: TR10 (human, UniProt Q9UBN6 56-204, limits assumed)
T1 construct: Antigen coated in the specificity phage ELISA; also called TRAIL-R4; DcR2
T1 sequence: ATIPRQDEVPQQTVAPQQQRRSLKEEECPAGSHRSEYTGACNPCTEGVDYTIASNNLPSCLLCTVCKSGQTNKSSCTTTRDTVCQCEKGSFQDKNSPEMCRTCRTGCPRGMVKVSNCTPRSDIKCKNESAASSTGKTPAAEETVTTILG

T2: TR5 (human, UniProt O14798 30-242)
T2 construct: Antigen coated in the specificity phage ELISA; also called TRAIL-R3; DcR1
T2 chain: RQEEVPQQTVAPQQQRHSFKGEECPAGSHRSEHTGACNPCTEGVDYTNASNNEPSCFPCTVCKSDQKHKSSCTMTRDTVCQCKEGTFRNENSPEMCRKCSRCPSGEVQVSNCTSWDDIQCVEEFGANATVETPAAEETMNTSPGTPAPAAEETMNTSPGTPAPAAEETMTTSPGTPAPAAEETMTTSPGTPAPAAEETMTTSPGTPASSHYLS

T3: TR4:Fc receptor (human, UniProt O00220 109-240)
T3 construct: also called TR4-Fc fusion protein; not shown: Fc region
T3 chain: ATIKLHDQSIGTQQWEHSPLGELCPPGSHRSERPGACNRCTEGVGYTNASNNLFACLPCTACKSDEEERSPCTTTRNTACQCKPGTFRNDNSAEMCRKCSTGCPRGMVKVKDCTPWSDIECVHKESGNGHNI

B1: scFv T1014G04 (scFv)
scFv: EVQLVQSGADVKRPGASVKVSCKISGDSFTAYFIHWVRQAPGQGLEWMGWFNPDSGTADSAQKFHGRVTMTRDTSSSTAFLELSRLRSDDTAVYYCVRQHRGNTFAPWGRGTLVTVSSGGGGSGGGGSGGGGSAQPVLTQPPSASGSPGQSVTISCTGTSSDVGSYEYVSWYQQHPGKAPRLMISEVNKRPSGVPNRFSGSKSGNTASLTVSGLQADDEADYYCSSYAGSNNWVFGGGTKVTVLG
B2: scFv T1014B11 (scFv)
scFv: EVQLVQSGAEVKKPGASVKVSCKISGDSFTAYFIHWLRQAPGEGLEWMGWFNPISGTAGSPQKFHGRVAMTRDTSISTAYMELTRLASDDTAIYYCARQHHSNTFDPWGQGTLVTVSSGGGGSGGGGSGGGGSAQSALTQPASVSGSPGQSITISCTGTNSDVGGYNYVSWYQQHPGKAPKLMIYEVNNRPSGVSNRFSGSKSGNTASLTISGLQADDEADYYCSSYTTSNTWVFGGGTKLTVLG
B3: scFv T1014G03 (scFv)
scFv: EVQLVQSGAEVKMPGASVKLSCRVSGDTFTAYFIHWVRQAPGQGLEWMGWFNPISGTAGSAEKFRGRVAMTRDTSISTAYMELNRLTFDDTAVYYCARQHRGNTFDPWGQGTLVTVSSGGGGSGGGGSGGGGSAQSALTQPASVSGSPGQSITISCTGTSSDIGAYKYVSWYQQHPGKAPKLVIYEVSNRPSGVSSRFSGSKSGQTASLTISGLQADDEADYYCNSYQGYNTWVFGGGTKVTVLG
B4: scFv T1014A04 (scFv)
scFv: EVQLVQSGADVKRPGASVKVSCKISGDSFNAYFIHWVRQAPGQGLEWMGWFNPDSGTADSAQKFHGRVTMTRDTSSSTAFLELSRLRSDDTAVYYCVRQHRGNTFAPWGRGTMVTVSSGGGGSGGGGSGGGGSAQSVLTQPPSASGSPGQSVTISCTGTTSDVGGYNYVSWYQQHPGKAPKLMIYGVNQRPSGVPDRFSGSKSGNTASLTVSGLQAEDEADYYCSSYAGSNNWVFGGGTKLTVLG
B5: scFv T1014F08 (scFv)
scFv: EVQLVQSGAEVKKPGASVKLSCRVSGDTFTAYFIHWVRQAPGQGPEWMGWFNPISGTAGSAARFRGRVAMTRDTSISTAYMELNRLTFDDTAVYYCARQHRGNTFDPWGKGTLVTVSSGGGGSGGGGSGGGGSALPVLTQPPSASGSPGQSVTISCTGTSSDVGGYKYVSWYQQHPGKAPKLMIYEVSMRPSGVPDRFSGSKSGNTASLTVSGLQAEDEADYYCASYAGSNNWVFGGGTKLTVLG
B6: IgG1 antibody comprising the VH and VL domains of the T1014A04 scFv (antibody, V domains shown)
VH: EVQLVQSGADVKRPGASVKVSCKISGDSFNAYFIHWVRQAPGQGLEWMGWFNPDSGTADSAQKFHGRVTMTRDTSSSTAFLELSRLRSDDTAVYYCVRQHRGNTFAPWGRGTMVTVSS
VL: QSVLTQPPSASGSPGQSVTISCTGTTSDVGGYNYVSWYQQHPGKAPKLMIYGVNQRPSGVPDRFSGSKSGNTASLTVSGLQAEDEADYYCSSYAGSNNWVFGGGTKLTVLG
notes: Whole IgG1; also called IgG1 format of T1014A04
B7: IgG1 antibody comprising the VH and VL domains of the T1014G04 scFv (antibody, V domains shown)
VH: B6 VH with N30T, M113L
VL: QPVLTQPPSASGSPGQSVTISCTGTSSDVGSYEYVSWYQQHPGKAPRLMISEVNKRPSGVPNRFSGSKSGNTASLTVSGLQADDEADYYCSSYAGSNNWVFGGGTKVTVLG
notes: Whole IgG1; also called T14G04
B8: IgG1 antibody comprising the VH and VL domains of the T1014G03 scFv (antibody, V domains shown)
VH: EVQLVQSGAEVKMPGASVKLSCRVSGDTFTAYFIHWVRQAPGQGLEWMGWFNPISGTAGSAEKFRGRVAMTRDTSISTAYMELNRLTFDDTAVYYCARQHRGNTFDPWGQGTLVTVSS
VL: QSALTQPASVSGSPGQSITISCTGTSSDIGAYKYVSWYQQHPGKAPKLVIYEVSNRPSGVSSRFSGSKSGQTASLTISGLQADDEADYYCNSYQGYNTWVFGGGTKVTVLG
notes: Whole IgG1

What is called Kd is a measure of binding affinity in units of concentration. Lower therefore signals higher affinity.

Positions count from the first letter of the chain named.

T5 sequence (Q9Y275 134-285 limits assumed): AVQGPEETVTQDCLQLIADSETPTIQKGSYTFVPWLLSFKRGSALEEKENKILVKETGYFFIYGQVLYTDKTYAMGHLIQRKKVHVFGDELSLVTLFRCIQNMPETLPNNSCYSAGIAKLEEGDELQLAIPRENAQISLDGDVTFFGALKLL

In one experiment the target is T4, TR7 (human, UniProt O14763 52-184, limits assumed).
T4 construct: Antigen coated in the specificity phage ELISA; also called TRAIL-R2; DR5
Description: specificity phage ELISA, antigen coated at 1 ug/ml. The method, then:
(§1) Flexible 96-well plates (Falcon) were coated overnight at 4° C. with each antigen (1 μg/ml). All antigens were coated in PBS. After coating, the solutions were removed from the wells, and the plates were blocked for 1 hour at room temperature in MPBS. The plates were washed 3 times with PBS and then 50 μl of pre-blocked phage was added to each well. The plates were incubated at room temperature for 1 hour and then washed with 3 changes of PBST followed by 3 changes of PBS.
(§2) To each well, 50 μl of an anti-M13-HRP conjugate (Pharmacia) at a 1 in 5000 dilution in MPBS was added and the plates incubated at room temperature for 1 hour. Each plate was washed three times with PBST followed by three times with PBS.
(§3) Fifty μl of TMB substrate was then added to each well, and incubated at room temperature for 30 minutes or until colour development. The reaction was stopped by the addition of 25 μl of 0.5 M H₂SO₄. The signal generated was measured by reading the absorbance at 450 nm (A₄₅₀) using a microtitre plate reader (Bio-Rad 3550).
On the technique in general: ELISA stands for enzyme-linked immunosorbent assay.
Take B1: the binding result is “no binding”.
Regarding B2, the binding result was “no binding”.
With B3, the binding result is given as “no binding”.
Consider B4, for which the binding result is reported as “no binding”.
Turning to B5, the binding result is “no binding”.

The next experiment has as its target T5, BLyS (human, UniProt Q9Y275 134-285, limits assumed).
T5 construct: Unrelated control antigen in the specificity phage ELISA
Description: specificity phage ELISA, antigen coated at 1 ug/ml. The method, then:
as §1, §2, §3
As to B1, the binding result is “no binding”.
The same measure, in the same setting: the same measure for B2: “no binding”; for B3: “no binding”.
B4: the binding result is “no binding”.
For B5, the binding result is given as “no binding”.

In another experiment the target is T1, TR10. The experiment in a line: specificity phage ELISA, antigen coated at 1 ug/ml. The method, then:
as §1, §2, §3
As for B1, the binding result is recorded as “no binding”.
Take B2: the binding result is recorded as “no binding”.
Turning to B3, the binding result is recorded as “no binding”.
As to B4, the binding result is recorded as “no binding”.
For the molecule B5, the binding result is given as “no binding”.

The target of a further experiment is T2, TR5. The experiment in a line: specificity phage ELISA, antigen coated at 1 ug/ml. The method, then: as §1, §2, §3
B1: the binding result is listed as “no binding”.
Turning to B2, the binding result is recorded as “no binding”.
In the case of B3, the binding result was “no binding”.
In the case of B4, the binding result is “no binding”.
For the molecule B5, the binding result is reported as “no binding”.

A further experiment has as its target T3, TR4:Fc receptor. The experiment in a line: SPR (BIAcore 2000), TR4:Fc amine-coupled on CM5 chip, IgG1 as analyte, double reference subtraction, 1:1 Langmuir fit, 25 C. The method, then: The optimal pH for this coupling was analyzed using preconcentration experiments ranging from pH 4-7 and was determined to be pH 4.0 for both the TR4 and the TR2 receptor. Amine coupling was used to covalently bind each receptor (fc) to the dextran matrix on the CM5 sensor chip. The immobilization experiment was performed using the manual injection mode. The entire immobilization experiment was performed at 5 μL/min. A 3-minute injection of EDC/NHS (1:1) was applied to each flow cell to active esters. A target level of ˜200RU was set as the goal for all each flow cell. Fc-fusion receptors, TR4 and TR2 at 5 μg/mL, were immobilized onto individual flow cells of a sensor chip. The amount applied varied from 8-14 μL. A 3-minute ethanolamine injection completed the immobilization experiment by inactivating the esters.
The kinetics cycles were performed as follows: The flow rate for the entire cycle was 25 μL/minute with the flow path including both the control (TR2) and experimental (TR4) flow cell at all times. A 1-minute buffer injection was applied to stabilize the baseline. The purified antibody (IgG1 antibody comprising the VH and VL domains of each of the T1014A04, T1014G03, T1014F08, and T14G04 scFvs) was diluted from 10 μg/mL (65 nM) to 0.115 μg/mL (0.75 nM) in running buffer and tested in duplicate. Each concentration was in contact with the control (TR2) and the experimental (TR4) flow cell during a 4-minute association and a 10-minute dissociation phase. Regeneration was performed using 25 mM NaOH from 5-12 μL depending on the sample concentration.
A double-reference subtraction was performed, which refers to the control flow cell subtraction for every cycle, in addition to a buffer cycle subtraction. The 1:1 Langmuir model was used for all evaluation fitting.
B6 had a dissociation constant (Kd) of 0.468 nM.
On the same count and under the same terms, the same measure for B7: 0.194 nM.
B8 registered a dissociation constant Kd of 0.554 nM.

Values taken from patent US20090226429A1 (Human Genome Sciences, published 2009).
